B1: HSP90AB1 (parent)
chain: EADKNDKAVKDLVVLLFETALLSS

Variants of: B1
Experiment: protein stability index of a GFP-peptide fusion (GPS, HEK-293T) (PSI 1-6); higher = more stable
Conditions: c terminus: a fixed tail appended
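Further: lentivirally expressed fusions sorted by FACS into six bins by GFP to DsRed ratio, PSI derived from sequencing read proportions per bin multiplied by bin number.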

Protein stability index: each site, then its substitutions
L12: H 3.27; M 2.2; E 3.99; K 3.6; I 2.46; C 2.35; G 3.5; V 2.1; F 1.72; D 4.21; A 2.52; Y 2.16; Q 3.71; S 3.49; R 3.44; T 2.73; N 3.89; P 3.2
K10: Q 2.19; W 1.83; D 2.42; L 1.82; A 1.82; N 2.01; Y 2.7; M 1.83; I 1.96; V 2.48; H 2.38; E 2.18; F 2.22; T 2.26; P 1.49; R 1.8; C 1.96; S 1.82; G 1.86
A20: D 2.85; E 2.43; I 2.19; M 1.97; R 2.42; S 2.8; W 2.07; L 1.44; T 1.99; F 2.42; V 1.88; N 2.16; G 2.46; C 1.47; P 2.27; Q 2.44
K4: T 2.06; M 2.13; R 1.59; F 2.21; A 1.9; C 1.87; W 2.12; H 1.82; P 1.63; S 1.8; N 2.05; G 1.34; I 2; D 2.13; E 2.2; Q 2.09; V 1.85; L 1.75; Y 2.13
A8: H 2.62; W 2.07; T 1.87; K 1.94; R 2.19; S 2.22; N 2.2; M 2.62; D 2.44; I 1.55; P 2.01; C 2.56; V 1.63; F 2.18; E 2.12; G 1.97; L 2.43
L15: S 2.77; K 2.48; P 4.06; G 3.23; H 2.69; W 3.99; M 1.92; A 2.52; I 1.95; D 3.61; Q 3.06; N 3.62; V 1.5; C 2.15; R 2.64; E 3.5; T 2.71; Y 2.04
V13: N 3.7; L 2.1; T 3.27; R 2.98; H 2.58; C 2.03; I 1.93; P 3.78; E 3.74; K 3.37; Y 2.33; A 2.41; S 3.54; D 3.81; F 2.41; G 3.38; Q 4.08
E18: G 4.31; F 3.16; C 1.82; P 2.73; T 2.01; A 2.2; H 2.07; S 2.16; M 3; R 2.21; L 2.61; I 3.81; N 1.7; D 1.33; K 2.42; W 2.79; V 4.33; Q 1.77
L16: P 4.67; R 3.37; S 3.94; H 3.34; W 2.2; I 2.07; Y 2.27; D 4.88; N 4.05; K 3.62; Q 4.37; C 3.07; G 4.18; V 2.16; F 1.69; T 3.63; E 4.31; A 3.56
K7: L 2.47; Y 2.79; I 2.77; Q 1.67; P 2.24; T 1.84; F 2.32; R 2.02; M 2.47; C 1.44; A 1.95; W 3.3; S 1.92; G 2.17; D 2; H 2; N 1.95
D3: L 1.86; S 2.65; V 2.02; N 2.13; E 1.65; H 1.98; A 2.57; G 1.58; P 2.47; T 1.65; Q 1.82; W 1.86; M 1.25; I 1.9; K 1.58; R 1.9; Y 2.46; F 3.79; C 1.4
D11: C 3.23; S 1.99; H 2.61; V 3.05; M 1.65; I 3.6; F 2.86; Y 2.79; K 2.15; N 2.67; E 1.98; A 2.54; T 3.74; R 3.27; Q 1.97; W 3.06; P 1.51; G 2.68
F17: L 1.76; K 3.76; R 3.31; S 3.89; P 4.3; H 3.13; I 1.84; E 4.22; D 4.65; G 4.26; A 3.56; Q 3.82; N 3.94; M 2.1; W 2.26; Y 2.13; V 1.92; C 2.59; T 3.67
N5: A 2.57; M 2.27; G 1.67; H 1.68; E 2.06; V 1.93; R 1.63; K 2.35; F 1.64; P 1.59; T 2.43; S 2; Q 1.8; L 1.99; W 2.28; I 1.9; Y 1.83
D6: H 2.6; V 1.9; T 1.42; Y 1.69; M 2.64; A 2.51; F 3.2; W 1.69; N 1.9; L 2.27; Q 2.2; G 1.85; E 1.63; C 2.48; R 1.73; I 3.48; K 1.28
T19: F 2.57; Y 2.02; Q 1.75; G 2.49; L 1.98; K 2.2; I 2.92; M 2.29; V 2.11; S 2.15; C 2.54; D 2.32; N 2.15; H 2.2; E 2.71; P 1.83; W 2.52; A 1.42; R 1.99
V14: G 2.19; M 1.61; Q 2.33; A 1.77; D 3.03; L 1.72; C 2.81; S 2.17; N 2.21; Y 1.88; P 3.93; K 2.64; W 1.92; R 2.29; I 2.04; F 1.98; T 2.12
V9: Q 1.7; M 1.8; I 1.84; S 2.1; K 2.15; P 2.81; D 2.44; F 2.17; W 1.7; C 1.81; A 1.97; Y 2.16; T 2.49; L 2.42; H 3; R 1.95; E 3.07
A2: W 1.92; N 2.11; S 1.77; H 2.1; K 1.68; I 1.73; M 1.67; Q 1.54; P 1.79; R 2.26; V 2.1; Y 1.73; T 2.15; L 1.68

From the supplement of paper PMC10567573
